Assay results taken from patent US20240400640A1.

Target: FcRn (human) (UniProt P55899)
Assay: Lumit FcRn binding immunoassay (competition); pH 6.0

IC50: 0.0128 µM
Substance: hIgG1
